# Data from article PMC7076939.
# How the values were obtained:
# [1] = tested on: ATTO-MBD2 (MBD2FLsc labeled with ATTO 565) (human); assay: fluorescence anisotropy; conditions: 24 nM DNA, text rounds to 25±5, 5-methylcytosine at one CpG, Anisotropy: 20 mM HEPES, 50 mM NaCl, 3 mM MgCl2, 3 mM EDTA, pH 7.5, 24 nM DNA, temperature not given, AFM: 20 mM HEPES, 10 mM Mg(OAc)2, 100 mM NaCl
# [2] = tested on: MBD2FLsc (single-chain MBD2 with scMBD2-GATAD2A), unlabeled (human); assay: fluorescence anisotropy; conditions: 24 nM DNA, text rounds to 12±4, 5-methylcytosine at one CpG, Anisotropy: 20 mM HEPES, 50 mM NaCl, 3 mM MgCl2, 3 mM EDTA, pH 7.5, 24 nM DNA, temperature not given, AFM: 20 mM HEPES, 10 mM Mg(OAc)2, 100 mM NaCl
# MeCP2 (human) = assay: fluorescence anisotropy; conditions: 24 nM DNA, text gives error 4.4, 5-methylcytosine at one CpG, Anisotropy: 20 mM HEPES, 50 mM NaCl, 3 mM MgCl2, 3 mM EDTA, pH 7.5, 24 nM DNA, temperature not given, AFM: 20 mM HEPES, 10 mM Mg(OAc)2, 100 mM NaCl
# [3] = tested on: ATTO-MBD2 (MBD2FLsc labeled with ATTO 565) (human); assay: nanochannel single-molecule fluorescence; conditions: Anisotropy: 20 mM HEPES, 50 mM NaCl, 3 mM MgCl2, 3 mM EDTA, pH 7.5, 24 nM DNA, temperature not given, AFM: 20 mM HEPES, 10 mM Mg(OAc)2, 100 mM NaCl
substance,measurement,setting,value
FAM-labeled dsDNA with one methylated CpG,Kd,[1],24.5 nM
same,Kd,[2],11.9 nM
same,Kd,MeCP2 (human),7.5 nM
methylated lambda DNA,binding signal (fold bound vs unmethylated),[3]; CpG 5-methylcytosine,10
unmethylated lambda DNA,binding signal (fraction of methylated),[3],0.1
